Experimental data as given in patent publication US20040009174A1.
Several values for one entry are separate records, joined by “and”; a condition that tells them apart may be missing. Equal entries are not always repeated. Each block holds one molecule with its values, some of them ahead of it.

Assays:
human CD40 (human) = human CD40 (human) (UniProt P25942); assay: cell-based or functional assay
[1] = biological target: human OX40 ligand (OX40L) (human) (UniProt P23510); assay: cell-based or functional assay
UniProt P23510, sequence (P23510 whole entry): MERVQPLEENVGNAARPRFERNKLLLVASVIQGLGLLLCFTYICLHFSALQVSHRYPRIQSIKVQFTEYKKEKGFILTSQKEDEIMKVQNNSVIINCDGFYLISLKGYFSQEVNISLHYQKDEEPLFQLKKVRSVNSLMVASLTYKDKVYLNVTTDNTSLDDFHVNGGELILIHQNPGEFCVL

UniProt P25942, sequence (P25942 21-277): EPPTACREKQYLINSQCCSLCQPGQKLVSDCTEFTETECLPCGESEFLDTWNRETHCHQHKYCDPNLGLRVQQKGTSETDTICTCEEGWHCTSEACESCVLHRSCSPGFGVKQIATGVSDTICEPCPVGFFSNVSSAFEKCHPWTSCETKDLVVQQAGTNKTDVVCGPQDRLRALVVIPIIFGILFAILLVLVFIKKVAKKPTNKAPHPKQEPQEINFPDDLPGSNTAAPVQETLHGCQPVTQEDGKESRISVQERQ

IL-6 production by HASM cells (ELISA), 1 ug/ml (human CD40 (human)): 2 fold and 3 fold
Molecule: recombinant human soluble CD40L (from UniProt P29965 116-261) (ligand)

IL-6 production by HASM cells (ELISA), 1 ug/ml [1]: 2 fold and 3 fold
PKCβ2 in membrane fraction (Western blot), HASM cells [1]: 3 fold
B1: Soluble human recombinant OX40 [CD134]:Fc (Fc fusion, UniProt P43489 29-220, looked up, not shown: a dimerising Fc or GST)
chain: LHCVGDTYPSNDRCCHECRPGNGMVSRCSRSQNTVCRPCGPGFYNDVVSSKPCKPCTWCNLRSGSERKQLCTATQDTVCRCRAGTQPLDSYKPGVDCAPCPPGHFSPGDNQACKPWTNCTLAGKHTLQPASNSSDAICEDRDPPATQPQETQGPPARPITVQPTEAWPRTSQGPSTRPVEVPGGRAVAAILG
